Here are results for three molecules from patent US20230192896A1 (BIOVERATIV THERAPEUTICS, published 2023).

The target of assay [1] is T1, free FIXa (activated Factor IX) (human, UniProt P00740 47-191; P00740 227-461). Put plainly: cell-based or functional assay.
Another assay concerns the target T2, FX zymogen (Homo sapiens (Human), UniProt P00742 41-179; P00742 183-488).
T2 construct: Light and heavy chain of secreted FX zymogen, disulfide linked; also called Factor X zymogen; factor X zymogen
Put plainly: not stated (FIG. 24B).

Assay [2] deals with T1, free FIXa (activated Factor IX). Description: not stated (FIG. 24B).
Assay [3] addresses T3, FIX zymogen (non-activatable FIX) (human, UniProt P00740 47-461).
T3 construct: also called FIXn; Factor IX zymogen
Description: not stated (FIG. 24B).

In assay [4] the target is T1, free FIXa (activated Factor IX). Put plainly: Fab mixed 1.5:1 with FIXa, complex purified by size exclusion chromatography. Background: Size exclusion chromatography separates by hydrodynamic size, large species first.
Description: To do this, we first cloned, expressed, and purified only the Fab portion of each of these antibodies using standard methods. Subsequently, we mixed each Fab in a 1.5:1 molar ratio with FIXa in a calcium containing buffer and purified the resulting complex from excess Fab using size exclusion chromatography.
For another assay, the target named is T4, activated Factor X (FXa) (Homo sapiens (Human), UniProt P00742 41-179; P00742 235-488).
T4 construct: also called free FXa; factor Xa
Put plainly: BLI, antibody on AHQ sensor. (Biolayer interferometry detects binding as a change in optical thickness at a sensor tip.)

The term Kd denotes the constant that tells how readily two partners part at equilibrium.

Positions count from the first letter of the chain named.

T4 sequence (P00742 41-179, chain 1 of 2): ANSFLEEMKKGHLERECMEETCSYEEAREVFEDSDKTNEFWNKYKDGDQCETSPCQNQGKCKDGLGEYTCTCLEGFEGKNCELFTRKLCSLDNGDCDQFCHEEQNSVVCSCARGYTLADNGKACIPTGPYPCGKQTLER
T4 sequence (P00742 235-488, chain 2 of 2): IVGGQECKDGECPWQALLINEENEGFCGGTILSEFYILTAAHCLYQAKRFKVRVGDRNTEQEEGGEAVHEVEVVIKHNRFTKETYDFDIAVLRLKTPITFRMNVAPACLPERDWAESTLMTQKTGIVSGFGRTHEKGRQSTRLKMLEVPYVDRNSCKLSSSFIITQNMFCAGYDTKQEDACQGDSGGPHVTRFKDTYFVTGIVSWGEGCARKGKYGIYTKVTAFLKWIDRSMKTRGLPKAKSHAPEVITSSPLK
T2 sequence (P00742 41-179, chain 1 of 2): as the sequence (P00742 41-179, chain 1 of 2) above
T2 sequence (P00742 183-488, chain 2 of 2): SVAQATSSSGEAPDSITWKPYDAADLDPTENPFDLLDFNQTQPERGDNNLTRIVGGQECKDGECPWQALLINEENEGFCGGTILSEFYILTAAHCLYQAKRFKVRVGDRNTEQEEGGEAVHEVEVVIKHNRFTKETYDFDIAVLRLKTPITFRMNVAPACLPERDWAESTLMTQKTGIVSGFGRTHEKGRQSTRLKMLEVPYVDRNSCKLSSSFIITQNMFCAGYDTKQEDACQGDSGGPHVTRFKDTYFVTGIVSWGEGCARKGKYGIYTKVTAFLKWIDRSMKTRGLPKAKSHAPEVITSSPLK

B1: BS-027125 (bispecific antibody, V domains shown)
VH 1: EVQLVESGGGLVKPGGSLRLSCAASGFTFGSYDMNWVRQAPGKGLEWVSSISSGESYIYYAESVKGRFTISRDNAKNSLYLQMNSLRAEDTAVYYCARDVGGYAGYYGMDVWGQGTTVTVSS
VL 1: not shown
VH 2: EVQLVQSGAEVKKPGESLKISCKGSGYSFTTYWIGWVRQMPGKGLEWMGIIYPGDSDTRYSPSFQGQVTISADKSISTAYLQWSSLKASDTAMYYCARGRFRPRGRFDYWGQGTLVTVSS
VL 2: EIVMTQSPATLSVSPGERATLSCRASQSVSSNLAWYQQKPGQAPRLLIYGASTRATGIPARFSGSGSGTEFTLTISSLQSEDFAVYYCQQLFNHPPTFGGGTKVEIK
For the molecule B1, the “rate of substrate (ADG299) cleavage by FIXa (amidolytic activity)” value in assay [1] is 3 fold. Moreover, the Kd in the assay with FX zymogen is 20 nM; in assay [2], 2 nM; in assay [3], 8 nM.

B2: Fab portion of BIIB-9-484 (Fab, V domains shown)
VH: B1 VH 1 with G30S, D33S, G54S, E55S, E62D
VL: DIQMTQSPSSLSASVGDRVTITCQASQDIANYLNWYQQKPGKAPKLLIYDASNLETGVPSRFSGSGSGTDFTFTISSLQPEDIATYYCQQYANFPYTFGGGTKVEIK
notes: Fab
For B2, in assay [4], the binding result is “binds”.

B3: BIIB-12-917 (antibody, V domains shown)
VH: B1 VH 2
VL: B1 VL 2
notes: IgG
With B3, the binding result with activated Factor X (FXa) was “no binding (tested: 250 nM)”.
